Assay results taken from the supplement of paper PMC10567573.
± gives the standard deviation.

Experiment: protein stability index of a GFP-peptide fusion (GPS, HEK-293T) (PSI 1-6); higher = more stable
Conditions: c terminus: a fixed tail appended
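Further: 24-mer peptide tiles fused after GFP, lentivirally expressed, FACS-sorted into six equal bins by GFP/DsRed ratio, decoded by Illumina sequencing, PSI is the read-weighted mean bin number.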

Row | Sequence | protein stability index (treatment: DMSO) | protein stability index (treatment: MLN4924 1 uM, 8 h)
1 | AMPMQDIKMILKMVQLDSIEDLEV [PRAME] | 2.25 ± 0.22 | 2.25 ± 0.59
2 | GLVTAALHMVIVAAFTWAFTLFFE [KMT2E] | 1.96 ± 0.3 | 1.83 ± 0.29
3 | SNNHHLMLEASEWATIEGLVELLQ [ZBED1] | 2.66 ± 0.14 | 2.71 ± 0.48
4 | DTNSIAKAIKARGEVIHCKLRAMK [STX11] | 2.82 ± 0.29 | 2.89 ± 0.23
5 | MAAKSQPNIPKAKSLDGVTNDRTA [DHCR7] | 5 ± 0.15 | 5.04 ± 0.16
6 | DPGVQELEALIDTIQKQLKDHSCK [EFHC1] | 3.93 ± 0.28 | 3.97 ± 0.25
7 | KEFTLLLSAANVCLDPIIYFFLCQ [P2RY14] | 3.06 ± 0.56 | 2.97 ± 0.17
8 | YRFDSSSCSSEDNLSLVCLPRSED [DRICH1] | 4.46 ± 0.16 | 4.51 ± 0.15
9 | NATAPRSPSHSPEHRRTARRTPPG [ELOA2] | 5 ± 0.15 | 5.2 ± 0.36
10 | DTGVFAVVNSHSLSLLGKLTISAA [SLC22A15] | 2.5 ± 0.42 | 2.33 ± 0.53
11 | QIFFGRRKDMIAEKLAPSEITEEL [ZNF396] | 3.85 ± 0.14 | 3.74 ± 0.13
12 | EHRVAGIFPRLSFKDKSTYIESST [CLPTM1] | 3.16 ± 0.2 | 2.93 ± 0.29
13 | QVMVSGPNLNETSIVSGGYGGSGD [ARFIP2] | 4.24 ± 0.29 | 4.41 ± 0.41
14 | KLSPKKTWEGFIGGFFATVVFGLL [CDS2] | 2.33 ± 0.43 | 2.01 ± 0.28
15 | QAAKLLGSMEQVSSHFLEQTLDKK [INTS4] | 3.78 ± 0.12 | 3.88 ± 0.36
16 | ELFEDIVAREYYSEADASHCIQQI [CAMK2B] | 2.8 ± 0.34 | 3.03 ± 0.25
17 | LEEEEEEEEEAEDEEVVATAGDRL [IRX6] | 5.71 ± 0.27 | 5.46 ± 0.32
18 | YEETGFYEIEIQAEDGGAYLATAK [PCDHGA10] | 3.57 ± 0.14 | 3.72 ± 0.29
19 | GCRTTHSNQEVLQSCLLVIFATKP [PYCR3] | 2.64 ± 0.68 | 2.65 ± 0.91
20 | RQGNPSWKKQQKCDECGKIFSQSS [ZNF396] | 3.57 ± 0.33 | 3.92 ± 0.11
21 | GAAVGTGSSYPTTTISYLPHAPPF [JUNB] | 3.1 ± 0.29 | 3.35 ± 0.36
22 | YGQFTCEGCKSFFKRSVRRNLSYT [NR2F2] | 2.33 ± 0.12 | 2.33 ± 0.21
23 | LNGTKVAEGHKASFCLEDTECEGD [LOXL2] | 5.41 ± 0.33 | 5.59 ± 0.12

Row | Sequence | protein stability index (treatment: DMSO) | protein stability index (treatment: MLN4924 1 uM, 8 h)
24 | YEIRVKTNLPIFKLKESTVRRRYS [SNX3] | 2.44 ± 0.4 | 2.27 ± 0.22
25 | PSTTERISTSGQAGTSSHGCWAWP [PXN] | 3.04 ± 0.21 | 3.17 ± 0.23
26 | EAAKGGHTSVVCYLLDYPNNLLSA [ANKRD17] | 2.02 ± 0.57 | 2.06 ± 0.47
27 | EQELLRRQQRLNQLEKPPEKEEDH [FAM107A] | 5.62 ± 0.16 | 5.54 ± 0.12
28 | KEQDVEKELRDGGEQDTWAGEGAE [NFE2L1] | – | 5.83 ± 0.073
29 | SELSEHLRDPLTSLSHTELEAAEV [FCHSD1] | 5.22 ± 0.16 | 5.32 ± 0.13
30 | DTLFERATNSSWVVVFKALVTTHH [SNAP91] | 2.62 ± 0.55 | 2.71 ± 0.48
31 | PEENYPSLQMSSAEMPHTETVSPL [NANOGP8] | 5.25 ± 0.12 | 5.28 ± 0.18
32 | PVSCCLGLLLESLVPFIVNDNITN [DYNC2LI1] | 2.57 ± 0.94 | 2.79 ± 0.58
33 | MQPSKPQQPSLNTMIQQQNMQQPM [CLINT1] | 4.1 ± 0.13 | 4.34 ± 0.46
34 | EFMLLPANQLIDIISSDELNVRSE [KLHL20] | 3.71 ± 0.37 | 3.38 ± 0.44
35 | SFSEEGAVGYSSDSETLDLEEAEG [NFE2L1] | 5.75 ± 0.38 | 5.18 ± 0.5
36 | VPSEEPQESDQTEEHESGIEQFSE [IQUB] | 5.69 ± 0.13 | 5.57 ± 0.38
37 | LRQRRPLRPQVVTDDDGQAPEAKD [APMAP] | 5.43 ± 0.16 | 5.52 ± 0.12
38 | LQMEFKAVQQVQRLPFLSSSNLSL [POMP] | 2.15 ± 0.22 | 2.16 ± 0.17
39 | ACDNGLNVRGGKPDDITVLLSIVA [PPTC7] | 2.32 ± 0.59 | 2.16 ± 0.45
40 | PRGKPPLNTRSQAPLLRWVLTLSF [HMOX1] | 2.81 ± 0.28 | 3.1 ± 0.61
41 | ELEEDDGHGAEQAAAFPTEDSRTS [EHMT1] | 5.65 ± 0.17 | 5.7 ± 0.088
42 | KRLCGLKVEVDMEKIAAEIAQAEE [SMARCE1] | 2.25 ± 0.12 | 3.63 ± 0.37
43 | ISSIEAQLSELRSEMECQNQEYKM [KRT13] | 4.76 ± 0.23 | 4.69 ± 0.29
44 | LRQQCAQVLRNNPDALSDVGEVPY [ELOA2] | 3.88 ± 0.21 | 3.93 ± 0.16
45 | VLMDTQGAFDSQSTVKDCATIFAL [ATL3] | 2.48 ± 0.35 | 2.55 ± 0.21
